In the data set the test system is T1, VEGF-121 (Homo sapiens), P15692-9.
T1 sequence: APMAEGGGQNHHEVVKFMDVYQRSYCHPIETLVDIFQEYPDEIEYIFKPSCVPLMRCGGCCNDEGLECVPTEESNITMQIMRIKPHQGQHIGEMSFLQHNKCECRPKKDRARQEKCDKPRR
The data set can be described thus: filter.

For the setting “P=Nap-dU, C3 spacer at 44”, “CCCTCCATCAGCCGTTCAAGTGCTTGTAGGATTTAAATGGAATGGAGGA [4867-15_67]” showed a Kd of 0.15 nM.

As for “CCCTCCATCAGCCGTTCAAGTGCTTGTAGGATTTAAATGGAATTGGAGGA [4867-31_2 (4867-15_2, 50-mer)]”, the Kd (all P are NapdU, rest DNA, 50-mer parent) worked out at 0.15 nM.

Sequence “AGCCGTTCAAGTGCTTGTAGGATTTAAATGGA [4867-31_83]” registered a Kd (P=Nap-dU, 2'-OMe A19) of 0.1 nM.

In turn, “CCGTTCAAGTGCTTTAGGATTTAAATGG [4867-31_189]” registered a Kd (NapdU at P, C3 spacer 15, 2'-OMe 9,17,18,25,28,29 as printed) of 0.9 nM.

Where the note is “P=Nap-dU, C3 spacer at 39”, “CCCTCCATCAGCCGTTCAAGTGCTTGTAGGATTTAAATGAATTGGAGGA [4867-15_62]” gave a Kd of 53 nM.

On to “CCGTTCAAGTGCTTGTAGGATTTAAATGG [4867-31_417]”, for which the Kd (as 4867-31_192, PS 3' of 11, 3' inverted dT) came out at 0.0094 nM.

As to “CCGTTCAAGTGCTTGTAGGATTTAAATGG [4867-31_156]”, the Kd (NapdU at P, 2'-OMe 10) turned out to be 0.68 nM.

Under “P=Nap-dU, 2'-OMe G17”, “AGCCGTTCAAGTGCTTGTAGGATTTAAATGGA [4867-31_81]” had a Kd of 0.44 nM.

“CCGTTCAAGTGCTTGTAGGATTTAAATGG [4867-31_163]” displayed a Kd (NapdU at P, 2'-OMe 27) of 0.26 nM.

In the case of “CCCTCCATCGCCGTTCAAGTGCTTGTAGGATTTAAATGGAATTGGAGGA [4867-15_33]”, the Kd (P=Nap-dU, C3 spacer at 10) is 0.12 nM.

As to “CCGTTCAAGTGCTTGTAGGATTTAAATGG [4867-31_421]”, the Kd (as 4867-31_192, PS 3' of 16, 3' inverted dT) amounted to 0.015 nM.

In turn, “CCGTTCAAGTGCTTGTAGGATTTAAATGG [4867-31_441]” had a Kd (as 4867-31_192, PS 3' of 17 as printed, 3' inverted dT) of 0.017 nM.

With “CCGTTCAAGTGCTTGTAGGATTTAAATGG [4867-31_159]”, where the note is “NapdU at P, 2'-OMe 16”, the Kd came out at 0.56 nM.

“CCCTCCATCAGCCGTTCAAGTGCTTGTAGGATTTAAATGGAATTGGAGA [4867-15_72]” gave a Kd (P=Nap-dU, C3 spacer at 49) of 0.19 nM.

“CCGTTCAAGTGCTTTAGATTTAAATGG [4867-31_184]” returned a Kd (NapdU at P, C3 spacer 15,18, 2'-OMe 9,17) of 0.084 nM.

For the setting “VEGF-5Heg-PDGF, NapdU, 2'-OMe”, “CCGTTCAAGTGCTTGTAGGATTTAAATGGCGACAGCATGTATGCACATCT [5169-4_94]” registered a Kd of 0.066 nM.

Under “NapdU at P, 2'-OMe 14”, “CCGTTCAAGTGCTTGTAGGATTTAAATGG [4867-31_158]” registered a Kd of 1.7 nM.

Under “P=Nap-dU, 2'-OMe G11”, “AGCCGTTCAAGTGCTTGTAGGATTTAAATGGA [4867-31_75]” had a Kd of 0.15 nM.

Consider “CCCTCCATCAGCCGTTCAAGTGCTTGTAGGATTTAAATGGAATTGGAGA [4867-15_71]”, for which, for the setting “P=Nap-dU, C3 spacer at 48”, the Kd is 0.24 nM.

On to “CCGTTCAAGTGCTTGTAGGATTTAAATGG [4867-31_444]”, for which, for the setting “as 4867-31_192 plus PS 3' of G28, 3'-idT, PS walk”, the Kd turned out to be 0.0075 nM.

In turn, “AGCCGTTCAAGTGCTTGTAGGATTTAAATGGA [4867-31_90]” showed a Kd (P=Nap-dU, 2'-OMe A26) of 2.85 nM.

As for “CCCTCCATAGCCGTTCAAGTGCTTGTAGGATTTAAATGGAATTGGAGGA [4867-15_32]”, the Kd (P=Nap-dU, C3 spacer at 9) is 0.079 nM.

In the case of “CCGTTCAAGTGCTTTAGATTTAAATGG [4867-31_185]”, for the setting “NapdU at P, C3 spacer 15,18, 2'-OMe 6,9,12,17,28,29”, the Kd worked out at 0.26 nM.

Sequence “CCCTCCATCAGCCTTCAAGTGCTTGTAGGATTTAAATGGAATTGGAGGA [4867-15_37]” registered a Kd (P=Nap-dU, C3 spacer at 14) of 30 nM.

For “AGCCGTTCAAGTGCTTGTAGATTTAAATGGA [4867-31_99]”, for the setting “P=Nap-dU, C3 spacer at 20”, the Kd was 0.22 nM.

“CCGTTCAAGTGCTTGTAGGATTTAAATGG [4867-31_480]” showed a Kd (as 4867-31_192, 2'-OMe 1, PS 24,25) of 0.028 nM.

Turning to “AGCCGTTCAAGTGCTTGTAGGATTTAAATGGA [4867-31_74]”, under “P=Nap-dU, 2'-OMe A10”, the Kd stood at 3.14 nM.

The sequence “AGCCGTTCAAGTGCTTGTAGGATTTAAATGGA [4867-31_68]” registered a Kd (P=Nap-dU, 2'-OMe C4 (inferred, superscript lost)) of 7.55 nM.

Regarding “CCCTCCACAGCCGTTCAAGTGCTTGTAGGATTTAAATGGAATTGGAGGA [4867-15_31]”, under “P=Nap-dU, C3 spacer at 8”, the Kd came to 0.095 nM.

On to “CCGTTCAAGTGCTTGTAGGATTTAAATGG [4867-31_155]”, for which the Kd (NapdU at P, 2'-OMe 5) came out at 3.3 nM.

As to “CCGTTCAAGTGCTTTAGGATTTAAATGG [4867-31_190]”, the Kd (NapdU at P, C3 spacer 15, 2'-OMe 9,17,18,22,28,29 as printed) was 0.089 nM.

For the sequence “AGCCGTTCAAGTGCTTGTAGGATTTAAATGGA [4867-31_73]”, the Kd (P=Nap-dU, 2'-OMe A9) turned out to be 5.99 nM.

In the case of “AGCCGTTCAAGTGCTTGTAGGATTTAAATGGA [4867-31_94]”, the Kd (P=Nap-dU, 2'-OMe G30) stood at 0.21 nM.

For “CCGTTCAAGTGCTTGTAGGATTTAAATGG [4867-31_411]”, where the note is “as 4867-31_192 plus PS 3' of G3, 3'-idT, 29259-fold loss from PS at G3”, the Kd turned out to be 320 nM.

“GCCGTTCAAGTGCTTGTAGGATTTAAATGG [4867-31_144]” returned a Kd (NapdU at P) of 0.2 nM.

On to “CCGTTTAAGTGCTTGTAGGATTTAAATGGA [4867-31_147]”, for which the Kd (P=Nap-dU) was 3.28 nM.

The sequence “CCGTTCAAGTGCTTGTAGGATTTAAATGG [4867-31_414]” returned a Kd (as 4867-31_192, PS 3' of 7, 3' inverted dT) of 0.015 nM.

Where the note is “as 4867-31_192, PS 3' of 4, 3' inverted dT”, “CCGTTCAAGTGCTTGTAGGATTTAAATGG [4867-31_412]” returned a Kd of 0.022 nM.

Under “P=Nap-dU, C3 spacer at 2”, “CCTCCATCAGCCGTTCAAGTGCTTGTAGGATTTAAATGGAATTGGAGGA [4867-15_25]” displayed a Kd of 0.13 nM.

Sequence “CCGTTCAAGTGCTTGTAGGATTTAAATGG [4867-31_440]” gave a Kd (as 4867-31_192, PS 3' of 12, 3' inverted dT) of 0.0099 nM.

For the setting “P=Nap-dU, 2'-OMe G20”, “AGCCGTTCAAGTGCTTGTAGGATTTAAATGGA [4867-31_84]” had a Kd of 0.21 nM.

Take “CCCTCCATCAGCCGTTCAAGTGCTTGTAGGATTTAAATGGAATTGGAGG [4867-15_73]”: the Kd (P=Nap-dU, C3 spacer at 50) came to 0.17 nM.

Regarding “CCCTCCATCAGCCGTTCAGTGCTTGTAGGATTTAAATGGAATTGGAGGA [4867-15_41]”, the Kd (P=Nap-dU, C3 spacer at 18) was found to be 13 nM.

Sequence “CCGTTCAAGTGCTTGTAGGATTTAAATGG [4867-31_415]” came in with a Kd (as 4867-31_192, PS 3' of 8, 3' inverted dT) of 0.011 nM.

The sequence “CCTCCATCAGCCGTTCAAGTGCTTGTAGGATTTAAATGGAATTGGAGGA [4867-15_26]” had a Kd (P=Nap-dU, C3 spacer at 3) of 0.2 nM.

Turning to “CCCTCCATCAGCCGTTCAAGTGCTTGTAGGATTTAAATGGAATTGGGGA [4867-15_70]”, the Kd (P=Nap-dU, C3 spacer at 47) is 0.68 nM.

In turn, “CCCTCCATCAGCCGTTCAAGTGCTTGTAGATTTAAATGGAATTGGAGGA [4867-15_53]” registered a Kd (P=Nap-dU, C3 spacer at 30) of 23 nM.

The sequence “AGCCGTTAAGTGCTTGTAGGATTTAAATGGA [4867-31_101]” gave a Kd (P=Nap-dU) of 5.89 nM.

For the setting “P=Nap-dU, C3 spacer at 27”, “CCCTCCATCAGCCGTTCAAGTGCTTGAGGATTTAAATGGAATTGGAGGA [4867-15_50]” had a dissociation constant (Kd) of 3.5 nM.

“CCCTCCATCAGCCGTTCAAGTGCTTGTAGGATTTAAATGGAATTGAGGA [4867-15_69]” returned a Kd (P=Nap-dU, C3 spacer at 46) of 0.77 nM.

In turn, “CCGTTCAAGTGCTTATAGGATTTAAATGGA [4867-31_148]” gave a dissociation constant (Kd) (P=Nap-dU) of 0.53 nM.

On to “CCGTTCAAGTGCTTTAGATTTAAATGG [4867-31_186]”, for which the Kd (NapdU at P, C3 spacer 15,18, 2'-OMe 1,6,9,12,17,25,28,29) turned out to be 1.6 nM.

As to “AGCCGTTCAAGTGCTTGTAGGATTTAAATGGA [4867-31_92]”, for the setting “P=Nap-dU, 2'-OMe A28”, the Kd was 8.87 nM.

Where the note is “as 4867-31_192, PS 3' of 18, 3' inverted dT”, “CCGTTCAAGTGCTTGTAGGATTTAAATGG [4867-31_443]” yielded a Kd of 0.0085 nM.

Turning to “CCCTCCATCAGCCGTTAAGTGCTTGTAGGATTTAAATGGAATTGGAGGA [4867-15_40]”, the Kd (P=Nap-dU, C3 spacer at 17) worked out at 0.17 nM.

“CCGTTCAAGTGCTTGTAGGATTTAAATGG [4867-31_427]”: under “as 4867-31_192, PS 3' of 25, 3' inverted dT”, the Kd turned out to be 0.0081 nM.

Turning to “CCGTTCAAGTGCTTTTAGGATTTAAATGGA [4867-31_150]”, the Kd (P=Nap-dU) was 0.24 nM.

For the sequence “CCGTTCAAGTGCTTGTAGGATTTAAATGG [4867-31_477]”, the Kd (as 4867-31_192, 2'-OMe 1, PS 25,26) was found to be 0.024 nM.

Consider “CCGTTCAAGTGCTTGTAGGATTTAAATGG [4867-31_154]”, for which the Kd (NapdU at P, 2'-OMe 4) came to 5.9 nM.

In the case of “AGCCGTTCAAGTGCTTGTAGGATTTAAATGGA [4867-31_78]”, the Kd (P=Nap-dU, 2'-OMe C14) was determined as 0.24 nM.

Turning to “CCGTTCAAGTGCTTGTAGGATTTAAATGG [4867-31_413]”, under “as 4867-31_192, PS 3' of 5, 3' inverted dT”, the Kd worked out at 0.015 nM.

Consider “AGCCGTTAAGTGCTTGTAGGATTTAAATGGA [4867-31_97]”, for which the dissociation constant Kd (P=Nap-dU, C3 spacer at 8) was 7.3 nM.

For “CCCTCCATCAGCCGTTCAAGTCTTGTAGGATTTAAATGGAATTGGAGGA [4867-15_45]”, the Kd (P=Nap-dU, C3 spacer at 22) came to 3.5 nM.

The sequence “CCGTTCAAGTGCTTGTAGGATTTAAATGG [4867-31_160]” returned a Kd (NapdU at P, 2'-OMe 21) of 1.5 nM.

For the sequence “AGCCGTTCAAGTGCTTGTAGGATTTAAATGGA [4867-31_72]”, the Kd (P=Nap-dU, 2'-OMe C8 (inferred, superscript lost)) worked out at 0.21 nM.

The sequence “CCCTCCATCAGCCGTTCAAGTGCTTGTAGGATTTAAATGGATTGGAGGA [4867-15_65]” registered a Kd (P=Nap-dU, C3 spacer at 42) of 0.13 nM.

Take “CCTCCATCAGCCGTTCAAGTGCTTGTAGGATTTAAATGGAATTGGAGGA [4867-15_24]”: where the note is “P=Nap-dU, C3 spacer at 1”, the Kd turned out to be 0.11 nM.

On to “CCGTTCAAGTGCTTGTAGGATTTAAATGG [4867-31_423]”, for which the Kd (as 4867-31_192, PS 3' of 20, 3' inverted dT) stood at 0.018 nM.

For orientation: Kd means the free concentration of one partner at which half of the binding sites on the other are occupied at equilibrium, for simple one-to-one binding.
